Read-outs that look alike come from different tables or passages of the source.

Series [1] has as its target T1, ttPHP domain (Thermus thermophilus HB8, UniProt Q5SJ64 339-575).
T1 sequence: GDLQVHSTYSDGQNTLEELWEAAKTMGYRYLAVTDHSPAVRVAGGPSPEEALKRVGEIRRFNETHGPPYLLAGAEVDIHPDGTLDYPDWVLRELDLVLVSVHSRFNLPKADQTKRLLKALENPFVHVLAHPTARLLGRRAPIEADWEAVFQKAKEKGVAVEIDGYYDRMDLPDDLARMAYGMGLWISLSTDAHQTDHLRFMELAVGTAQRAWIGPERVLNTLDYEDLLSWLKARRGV
Briefly: EMSA. A general note: A gel shift assay detects complexes by their altered migration in electrophoresis.

The target in series [2] is T2, ttPOLXc domain (Thermus thermophilus HB8, UniProt Q5SJ64 1-379).
T2 sequence: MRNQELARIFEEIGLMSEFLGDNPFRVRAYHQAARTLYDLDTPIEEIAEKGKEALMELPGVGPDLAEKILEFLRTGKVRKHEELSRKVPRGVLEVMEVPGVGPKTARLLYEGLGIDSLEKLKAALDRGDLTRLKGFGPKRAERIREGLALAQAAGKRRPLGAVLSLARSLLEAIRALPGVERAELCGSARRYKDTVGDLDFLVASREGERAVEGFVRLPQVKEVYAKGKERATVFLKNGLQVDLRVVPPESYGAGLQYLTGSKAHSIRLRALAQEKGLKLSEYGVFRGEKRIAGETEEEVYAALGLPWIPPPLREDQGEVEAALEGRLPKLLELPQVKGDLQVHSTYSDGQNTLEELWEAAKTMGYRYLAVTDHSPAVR
Briefly: EMSA.

In series [3] the target is T3, ttPolX (Thermus thermophilus HB8, UniProt Q5SJ64 1-575).
T3 sequence: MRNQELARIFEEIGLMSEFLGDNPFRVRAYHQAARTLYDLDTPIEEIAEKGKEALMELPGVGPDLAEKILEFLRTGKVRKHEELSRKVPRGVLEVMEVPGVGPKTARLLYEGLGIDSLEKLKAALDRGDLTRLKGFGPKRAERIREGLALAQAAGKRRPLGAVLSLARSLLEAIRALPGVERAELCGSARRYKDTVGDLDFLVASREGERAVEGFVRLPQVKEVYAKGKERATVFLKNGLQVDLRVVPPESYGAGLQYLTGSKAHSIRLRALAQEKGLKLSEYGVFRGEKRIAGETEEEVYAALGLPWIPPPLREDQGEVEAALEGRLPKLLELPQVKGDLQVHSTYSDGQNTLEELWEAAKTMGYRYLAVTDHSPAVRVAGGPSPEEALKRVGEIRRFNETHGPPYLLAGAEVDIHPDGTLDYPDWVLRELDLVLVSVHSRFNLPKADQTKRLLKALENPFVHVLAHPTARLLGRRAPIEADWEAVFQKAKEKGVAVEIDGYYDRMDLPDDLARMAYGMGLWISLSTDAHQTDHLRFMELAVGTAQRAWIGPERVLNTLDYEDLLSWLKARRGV
Briefly: EMSA.

In series [4] the target is T2, ttPOLXc domain. Description: EMSA. This is another data set of the same source.
For series [5], the target named is T3, ttPolX. Briefly: EMSA. The source holds these as a separate data set.
For series [6], the target named is T2, ttPOLXc domain. Description: EMSA. The source holds these as a separate data set.
The target of series [7] is T3, ttPolX. Description: EMSA. The source holds these as a separate data set.
The target of series [8] is T3, ttPolX. Description: EMSA. This is another data set of the same source.
For series [9], the target named is T2, ttPOLXc domain. Briefly: EMSA. The source holds these as a separate data set.
In series [10] the target is T4, His-tagged ttPOLXc domain (N-terminal domain of ttPolX, residues 1-379) (Thermus thermophilus HB8, UniProt Q5SJ64 1-379).
T4 sequence (looked up): T2 sequence
Description: SEC. On the technique in general: Size exclusion chromatography separates by hydrodynamic size, large species first.

Regarding CACTGGCGGTCGTTCTATCGGGTGTTGCTTTAGTTGTCAT (ssDNA) [40T ssDNA], in series [1], the binding result is recorded as “no binding”. The Kd in series [2] was 5.5 ± 1.7 µM; in [3] it was 1.2 ± 0.7 µM.

B1: 40T/40C dsDNA (dsDNA)
DNA 1: CACTGGCGGTCGTTCTATCGGGTGTTGCTTTAGTTGTCAT
DNA 2: ATGACAACTAAAGCAACACCCGATAGAACGACCGCCAGTG
In the case of B1, the Kd amounted to 9.3 ± 3.8 µM in [4] and 1.2 ± 0.7 µM in series [5]. In addition, the binding result in series [1] was “no binding”.

B2: 21F/40T/18G 1-nt gapped DNA (dsDNA)
DNA 1: B1 DNA 1
DNA 2: ATGACAACTAAAGCAACACCC
DNA 3: ATAGAACGACCGCCAGTG
On to B2, for which the Kd came to 6.5 ± 2.5 µM in series [6] and 0.39 ± 0.15 µM in [7]. Further, the binding result in series [1] was “no binding”.

B3: 21F/40T/P18G 5'-phosphorylated 1-nt gapped DNA (dsDNA)
DNA 1: B1 DNA 1
DNA 2: ATGACAACTAAAGCAACACCC
DNA 3: ATAGAACGACCGCCAGTG
modifications: 5'-phosphate on 18G (P18G)
Consider B3, for which the Kd in [8] worked out at 0.3 ± 0.18 µM; in [9], 4.8 ± 2.5 µM. Further, the binding result in series [1] was “no binding”.

B4: His-tagged ttPHP domain (C-terminal domain of ttPolX, residues 339-575) (domain or fragment, Thermus thermophilus HB8, UniProt Q5SJ64 339-575, looked up)
chain: T1 sequence
On to B4, for which the “stoichiometry N” value in [10] was 1 ttPOLXc:ttPHP molar ratio.

The Kd is the free concentration of one partner at which half of the binding sites on the other are occupied at equilibrium, for simple one-to-one binding.
